Reference: US20260193326A1 (published 2026)
Like-named read-outs stand apart in the source and are kept apart here.

Key:
Experiment in all cases: SPR, AAV on CM5 chip
AAV5 [1] = target: T1, AAV5 (adeno-associated virus serotype 5)
T1 construct: also called adeno-associated virus serotype 5
Description: (§1) AAV was amine-coupled to a CM5 sensor chip at a density of 500-800 response units (RU). Nanobodies were injected at seven concentrations (1-100 nM) with a flow rate of 45 μL/min, and chip regeneration was performed using glycine-HCl (pH 1.5). Binding curves at different nanobody concentrations were used to calculate kinetic parameters (Kₐ, Kd, KD) (Table 2 and FIG. 2).

AAV8 [2] = target: T2, AAV8 (adeno-associated virus serotype 8)
T2 construct: also called adeno-associated virus serotype 8
Description: as §1

AAV2 [3] = target: T3, AAV2 (adeno-associated virus serotype 2, UniProt P03135 1-735)
T3 construct: also called adeno-associated virus serotype 2
Description: as §1

AAV9 [4] = target: T4, AAV9 (adeno-associated virus serotype 9)
T4 construct: also called adeno-associated virus serotype 9
Description: as §1

AAV5 [5] = target: T1, AAV5; remark: listed apart in the source
AAV8 [6] = target: T2, AAV8; remark: listed apart in the source
AAV2 [7] = target: T3, AAV2; remark: listed apart in the source
AAV9 [8] = target: T4, AAV9; remark: listed apart in the source
AAV5 [9] = target: T1, AAV5; remark: listed apart in the source
AAV8 [10] = target: T2, AAV8; remark: listed apart in the source
AAV2 [11] = target: T3, AAV2; remark: listed apart in the source
AAV9 [12] = target: T4, AAV9; remark: listed apart in the source

B1: A4-114 (VHH)
VHH: VQLQESGGGLVQTGGSLRLSCVASGSIFSINTVGWYRQAPGKQRELVATVTRAGSTWYAGSVKGRFTISRDNTKNTIYLQMNSLRPEDTAVYYCHVDELRQSTWTTSNLWGQGTQVTVSS
Kd (AAV5 [1]): 7.11 nM | koff (AAV5 [1]): 0.0011 s⁻¹ | kon (AAV5 [1]): 155000 M⁻¹ s⁻¹ | Kd (AAV8 [2]): 1.81 nM | koff (AAV8 [2]): 0.00017 s⁻¹ | kon (AAV8 [2]): 94000 M⁻¹ s⁻¹ | Kd (AAV2 [3]): 1.95 nM | koff (AAV2 [3]): 0.00022 s⁻¹ | kon (AAV2 [3]): 113000 M⁻¹ s⁻¹ | Kd (AAV9 [4]): 472 nM | koff (AAV9 [4]): 0.00123 s⁻¹ | kon (AAV9 [4]): 2610 M⁻¹ s⁻¹

B2: A4-B3 (VHH)
chain: VQLVESGGGLVQPGGSLRLSCAASGRSFSINTMGWFRQAPGKGLEAVAIVTRGGSTYYADSVKGRFTISRDNSKNTLYLQMNSLRAEDTAVYYCHIDEVRQSSWTTSNIWGQGTLVTVSSGGGGSGGGGSGGGGSVQLVESGGGLVQPGGSLRLSCAASGRSFSINTMGWFRQAPGKGLEAVAIVTRGGSTYYADSVKGRFTISRDNSKNTLYLQMNSLRAEDTAVYYCHIDEVRQSSWTTSNIWGQGTLVTVSS
Kd (AAV5 [5]): 0.556 nM | koff (AAV5 [5]): 0.0001 s⁻¹ | kon (AAV5 [5]): 180000 M⁻¹ s⁻¹ | Kd (AAV8 [6]): 0.835 nM | koff (AAV8 [6]): 8e-05 s⁻¹ | kon (AAV8 [6]): 95800 M⁻¹ s⁻¹ | Kd (AAV2 [7]): 0.245 nM | koff (AAV2 [7]): 2e-05 s⁻¹ | kon (AAV2 [7]): 81600 M⁻¹ s⁻¹ | Kd (AAV9 [8]): 20.3 nM | koff (AAV9 [8]): 0.00095 s⁻¹ | kon (AAV9 [8]): 46800 M⁻¹ s⁻¹

B3: A4-B4 (bispecific antibody)
chain: VQLVESGGGLVQPGGSLRLSCAASGRSFSINTMGWFRQAPGKGLEAVAIVTRGGSTYYADSVKGRFTISRDNSKNTLYLQMNSLRAEDTAVYYCHIDEVRQSSWTTSNIWGQGTLVTVSSGGGGSGGGGSGGGGSVQLVESGGGLVQPGGSLRLSCAASGSIFSINLMGWFRQAPGKGLELVAIITPGGNTYYADSVKGRFTISRDNSKNTVYLQMNSLRAEDTAVYYCHVDEVRQSSWTTSNLWGQGTLVTVSS
Kd (AAV5 [5]): 0.872 nM | koff (AAV5 [5]): 0.00016 s⁻¹ | kon (AAV5 [5]): 184000 M⁻¹ s⁻¹ | Kd (AAV8 [6]): 0.332 nM | koff (AAV8 [6]): 5e-05 s⁻¹ | kon (AAV8 [6]): 151000 M⁻¹ s⁻¹ | Kd (AAV2 [7]): 0.835 nM | koff (AAV2 [7]): 8e-05 s⁻¹ | kon (AAV2 [7]): 95800 M⁻¹ s⁻¹ | Kd (AAV9 [8]): 5.26 nM | koff (AAV9 [8]): 0.00063 s⁻¹ | kon (AAV9 [8]): 120000 M⁻¹ s⁻¹

B4: A4-H1 (VHH)
VHH: VQLVESGGGLVQPGGSLRLSCAASGRSFSINTMGWFRQAPGKGLEAVAIVTRGGSTYYADSVKGRFTISRDNSKNTLYLQMNSLRAEDTAVYYCHIDEVRQSSWTTSNIWGQGTLVTVSS
Kd (AAV5 [9]): 8.76 nM | koff (AAV5 [9]): 0.00153 s⁻¹ | kon (AAV5 [9]): 175000 M⁻¹ s⁻¹ | Kd (AAV8 [10]): 6.82 nM | koff (AAV8 [10]): 0.00135 s⁻¹ | kon (AAV8 [10]): 198000 M⁻¹ s⁻¹ | Kd (AAV2 [11]): 8.51 nM | koff (AAV2 [11]): 0.00139 s⁻¹ | kon (AAV2 [11]): 163000 M⁻¹ s⁻¹ | Kd (AAV9 [12]): 127 nM | koff (AAV9 [12]): 0.00069 s⁻¹ | kon (AAV9 [12]): 5420 M⁻¹ s⁻¹

B5: A4-H4 (VHH)
VHH: VQLVESGGGLVQPGGSLRLSCAASGSIFSINLMGWFRQAPGKGLELVAIITPGGNTYYADSVKGRFTISRDNSKNTVYLQMNSLRAEDTAVYYCHVDEVRQSSWTTSNLWGQGTLVTVSS
Kd (AAV5 [9]): 2.86 nM | koff (AAV5 [9]): 0.00032 s⁻¹ | kon (AAV5 [9]): 112000 M⁻¹ s⁻¹ | Kd (AAV8 [10]): 9.44 nM | koff (AAV8 [10]): 0.00125 s⁻¹ | kon (AAV8 [10]): 132000 M⁻¹ s⁻¹ | Kd (AAV2 [11]): 17.2 nM | koff (AAV2 [11]): 0.0017 s⁻¹ | kon (AAV2 [11]): 99000 M⁻¹ s⁻¹ | Kd (AAV9 [12]): 5.91 nM | koff (AAV9 [12]): 0.00078 s⁻¹ | kon (AAV9 [12]): 132000 M⁻¹ s⁻¹
